Experimental data reported in US20120237528A1 (Janssen / Centocor, published 2012).
Changes are numbered by the printed parent chain.

B1: M37 (antibody, V domains shown)
VH: QVQLVQSGAEVKKPGSSVKVSCKASGYTFITYWIEWVRQAPGQGLEWMGDILPGSGSTNYNENFKGRVTITADESTSTAYMELSSLRSEDTAVYYCARSGYYGNSGFAYWGQGTLVTVSS
VL: DIVMTQSPDSLAVSLGERATINCKSSQSLLSSGNQKNYLTWYQQKPGQPPKLLIYWASTRESGVPDRFSGSGSGTDFTLTISSLQAEDVAVYYCQNDYTYPLTFGQGTKLEIK
notes: complete MAb; FR4 is its own entry; also called H19/L2
B2: M46 (antibody, V domains shown)
VH: B1 VH with S16A, I70M, A72T, E74T, S84R, E89D
VL: DIVMTQSPLSLPVTPGEPASISCKSSQSLLSSGNQKNYLTWYLQKPGQSPQLLIYWASTRESGVPDRFSGSGSGTDFTLKISRVEAEDVGVYYCQNDYTYPLTFGQGTKLEIK
notes: complete MAb; FR4 is its own entry; also called H20/L4
B3: M68 (antibody, V domains shown)
VH: B1 VH with N61A, E62Q, N63K, K65Q
VL: B2 VL with S7T, P12S, E17Q, S49P
notes: complete MAb; FR4 is its own entry; also called H23/L5
B4: M42 (antibody, V domains shown)
VH: B1 VH
VL: B2 VL with S7T, L11S, P15L, E17Q, Y42L, L43Q, K45R, S49P, Q51R, S73A
notes: complete MAb; FR4 is its own entry; also called H19/L7
B5: M26 (antibody, V domains shown)
VH: B1 VH with S16A, G44R, A72R, E74T, T76A
VL: B2 VL with S7T, P12S, E17Q, S49P
notes: complete MAb; FR4 is its own entry; also called H17/L5
B6: M70 (antibody, V domains shown)
VH: B1 VH with N61A, E62Q, N63K, K65Q
VL: B2 VL with S7T, L11S, P15L, E17Q, Y42L, L43Q, K45R, S49P, Q51R, S73A
notes: complete MAb; FR4 is its own entry; also called H23/L7
B7: M49 (antibody, V domains shown)
VH: B1 VH with S16A, I70M, A72T, E74T, S84R, E89D
VL: B2 VL with S7T, L11S, P15L, E17Q, Y42L, L43Q, K45R, S49P, Q51R, S73A
notes: complete MAb; FR4 is its own entry; also called H20/L7
B8: M72 (antibody, V domains shown)
VH: EVQLVQSGAEVKKPGATVKISCKVSGYTFITYWIEWVQQAPGKGLEWMGDILPGSGSTNYAEKFQGRVTITADTSTDTAYMELSSLRSEDTAVYYCATSGYYGNSGFAYWGQGTLVTVSS
VL: B1 VL
notes: complete MAb; FR4 is its own entry; also called H24/L2
B9: M28 (antibody, V domains shown)
VH: B1 VH with S16A, G44R, A72R, E74T, T76A
VL: B2 VL with S7T, L11S, P15L, E17Q, Y42L, L43Q, K45R, S49P, Q51R, S73A
notes: complete MAb; FR4 is its own entry; also called H17/L7
B10: M21 (antibody, V domains shown)
VH: B1 VH with S16A, I70M, A72R, E74T, A79V
VL: B2 VL with S7T, L11S, P15L, E17Q, Y42L, L43Q, K45R, S49P, Q51R, S73A
notes: complete MAb; FR4 is its own entry; also called H16/L7
B11: M47 (antibody, V domains shown)
VH: B1 VH with S16A, I70M, A72T, E74T, S84R, E89D
VL: B2 VL with S7T, P12S, E17Q, S49P
notes: complete MAb; FR4 is its own entry; also called H20/L5
B12: M25 (antibody, V domains shown)
VH: B1 VH with S16A, G44R, A72R, E74T, T76A
VL: B2 VL
notes: complete MAb; FR4 is its own entry; also called H17/L4
B13: M66 (antibody, V domains shown)
VH: B1 VH with N61A, E62Q, N63K, K65Q
VL: B2 VL with S7T
notes: complete MAb; FR4 is its own entry; also called H23/L3
B14: M39 (antibody, V domains shown)
VH: B1 VH
VL: B2 VL
notes: complete MAb; FR4 is its own entry; also called H19/L4
B15: M67 (antibody, V domains shown)
VH: B1 VH with N61A, E62Q, N63K, K65Q
VL: B2 VL
notes: complete MAb; FR4 is its own entry; also called H23/L4
B16: M40 (antibody, V domains shown)
VH: B1 VH
VL: B2 VL with S7T, P12S, E17Q, S49P
notes: complete MAb; FR4 is its own entry; also called H19/L5
B17: M73 (antibody, V domains shown)
VH: B8 VH
VL: B2 VL with S7T
notes: complete MAb; FR4 is its own entry; also called H24/L3
B18: M77 (antibody, V domains shown)
VH: B8 VH
VL: B2 VL with S7T, L11S, P15L, E17Q, Y42L, L43Q, K45R, S49P, Q51R, S73A
notes: complete MAb; FR4 is its own entry; also called H24/L7
B19: M75 (antibody, V domains shown)
VH: B8 VH
VL: B2 VL with S7T, P12S, E17Q, S49P
notes: complete MAb; FR4 is its own entry; also called H24/L5
B20: M74 (antibody, V domains shown)
VH: B8 VH
VL: B2 VL
notes: complete MAb; FR4 is its own entry; also called H24/L4
B21: M14 (antibody, V domains shown)
VH: EVQLVQSGAEVKKPGESLRISCKGSGYTFITYWIEWVRQMPGKGLEWMGDILPGSGSTNYNENFKGHVTISADKSISTAYLQWSSLKASDTAMYYCARSGYYGNSGFAYWGQGTLVTVSS
VL: B2 VL with S7T, L11S, P15L, E17Q, Y42L, L43Q, K45R, S49P, Q51R, S73A
notes: complete MAb; FR4 is its own entry; also called H15/L7
B22: murine antibody 10H10 (antibody, V domains shown)
VH: QVHLQQSGAELMKPGASVKISCKASGYTFITYWIEWVKQRPGHGLEWIGDILPGSGSTNYNENFKGKATFTADSSSNTAYMQLSSLTSEDSAVYYCARSGYYGNSGFAYWGQGTLVTVSA
VL: DIVMTQSPSSLTVTAGEKVTMSCKSSQSLLSSGNQKNYLTWYQQIPGQPPKLLIYWASTRESGVPDRFTGSGSGTDFTLTINSVQAEDLAVYYCQNDYTYPLTFGAGTKLELK

Target: T1, recombinant extracellular domain (ECD) of human TF, amino acid 1-219 of the mature chain, C-terminal His6-tag (human, UniProt P13726 33-251)
T1 construct: expressed in a mammalian system; used for ELISA and Biacore; biotinylated by NHS-ester for the Fab ELISA; also called His6-TF-ECD1-219; HumanTF1-219
Assay: Biacore

Kd [nM]	koff [s⁻¹]	kon [M⁻¹ s⁻¹]	Binder
0.54	3.7e-05	69000	B1
0.49	4.4e-05	90000	B2
1.6	0.000103	64300	B3
1.02	8.2e-05	80400	B4
1.13	9.3e-05	82600	B5

Target: T1, recombinant extracellular domain (ECD) …
Assay: direct ELISA, 50 ng/ml

binding result	Binder
binds	B6
binds	B7
binds	B8
binds	B9
binds	B10
binds	B11
binds	B12
binds	B13
binds	B14
binds	B15
binds	B16
binds	B17
binds	B18
binds	B19
binds	B20
binds	B21

Target: Innovin, lyophilized recombinant human tissue factor combined with phospholipids (human, UniProt P13726 33-295, limits assumed)
Assay: cell-based or functional assay

T½ Max (seconds), coagulation of human plasma [s]	Binder
196	B1
195	B2
207	B3
202	B4
186	B5
191	B22

Target: endogenous human tissue factor on MDA-MB-231 breast cancer cells (human, UniProt P13726 33-295)
Assay: cell-based or functional assay

% IL-8 Inhibition [%]	Binder
71.2	B1
82.5	B2
89.8	B3
86	B4
79.1	B5
93.9	B22
